According to PMC2813275:

Biological target: GST-Nup153 (human wt Nup153) (human)
Assay: co-IP; competition: 200 ng P-rC with 200 ng GST-Nup153 and different concentrations of importin β together, 2 h at 37°C in transport buffer; anti-capsid beads; mAb414 blot

Substance: importin β (karyopherin) (from UniProt Q14974 1-876) (natural protein)
- molar excess of importin β that prevented Nup153 binding to P-rC: > 150 fold
